These results are taken from publication PMC7921601.

Assay [1] addresses AF488-αBc_(C176) (human alphaB-crystallin with an additional C-terminal cysteine, labelled with Alexa Fluor 488) (human). Briefly: single-molecule TIRF with photobleaching step analysis; αBcC176 in the absence of CLIC1C24, with or without cross-linking, diluted for TIRF microscopy; size of the oligomers.
The target in assay [2] is AF647-CLIC1C24 (CLIC1 W23F, C59A, C89A, C178A, C191A, C223A, labelled with Alexa Fluor 647 at C24) (UniProt O00299). Briefly: two-colour single-molecule TIRF colocalisation with photobleaching step analysis; AF647-CLIC1C24 (1 μM) with AF488-αBcC176 (2 μM) at 37 °C in 50 mM phosphate buffer pH 7.4; early timepoints (0.25-0.5 h); diluted 1:1000, CLIC1 held by an anti-6X His-tag antibody. The settings on record: scale: αBc subunits per CLIC1 subunit.

For assay [3] the target is unchanged. The experiment in a line: two-colour single-molecule TIRF colocalisation with photobleaching step analysis; AF647-CLIC1C24 (1 μM) with AF488-αBcC176 (2 μM) at 37 °C in 50 mM phosphate buffer pH 7.4; later timepoints (1-10 h); diluted 1:1000, CLIC1 held by an anti-6X His-tag antibody; with or without cross-linking before dilution.
The target in assay [4] is AF555-CLIC1C24 (CLIC1 W23F, C59A, C89A, C178A, C191A, C223A, labelled with Alexa Fluor 555 at C24) (UniProt O00299). The experiment in a line: FRET or BRET; single-molecule FRET by TIRF microscopy; AF555-CLIC1C24 (1 μM) with AF647-αBcC176 (2 μM) for 20 h at 37 °C in 50 mM phosphate buffer pH 7.4, diluted 1:1000, CLIC1 held on the coverslip by an anti-6X His-tag antibody; imaged at about 20 °C. In general terms: Bioluminescence resonance energy transfer reports proximity on the nanometre scale.

Consider “AF488-αBc_(C176) (human alphaB-crystallin with an additional C-terminal cysteine, labelled with Alexa Fluor 488) (natural protein)”, for which the results for the stoichiometry N in assay [1] and in assay [2] were below 10 subunits and 1, respectively. The same substance gave a percent of CLIC1C24 colocalized with αBcC176 (maximum, after 4 h) in assay [3] of 50%.

In assay [4], “AF647-αBc_(C176) (human alphaB-crystallin with an additional C-terminal cysteine, labelled with Alexa Fluor 647) (natural protein)” displayed an FRET efficiency (E) of 0.8 to 1.

As usually defined, the stoichiometry N is the number of molecules, sites or subunits per partner or assembly.
